Sequences and labels used below:
B1: scFv; the commonest letter at each place (parent)
chain 1: EVKLDETGGGLVQPGRPMKLSCVASGFTFSDYWMNWVRQSPEKGLEWVAQIRNKPYNYETYYSDSVKGRFTISRDDSKSSVYLQMNNLRVEDMGIYYCTGSYYGMDYWGQGTSVTVS
chain 2: DVVMTQTPLSLPVSLGDQASISCRSSQSLVHSNGNTYLRWYLQKPGQSPKVLIYKVSNRFSGVPDRFSGSGSGTDFTLKISRVEAEDLGVYFCSQSTHVPWTFGGGTKLEIK

Variants of B1 are the subject of the data set “fluorescein”. As to the kind of experiment: Kd (Tite-Seq). The conditions noted are these: with fluorescein; format: scFv 4-4-20, heavy + light.
The variants in data set [1] derive from B1. As to the kind of experiment: yeast surface expression (ratio to wild type); higher = more expressed. The note with it: format: scFv 4-4-20, heavy + light.

Take chain 1 Y103C M105I: the Kd with fluorescein came to 6.27 µM. For the same variant, the yeast surface expression in data set [1] worked out at 0.621.

Consider chain 1 Y32H N35T, for which the Kd with fluorescein was ≥ 10 µM. In addition, the yeast surface expression in data set [1] was 0.813.

In the case of chain 1 Y32H N35E, the Kd with fluorescein is ≥ 10 µM. For the same variant, the yeast surface expression in data set [1] was 0.518.

Regarding chain 1 G104D G109L, in the data set with fluorescein, the Kd was ≥ 10 µM. Also, the yeast surface expression in data set [1] stood at 0.236.

Turning to chain 1 T28S F29S, the Kd in the data set with fluorescein turned out to be 0.0269 µM. The yeast surface expression in data set [1] was found to be 1.17.

On to chain 1 Y102H W108M, for which the Kd with fluorescein is ≤ 0.000316 µM. For the same variant, the yeast surface expression in data set [1] turned out to be 0.91.

Regarding chain 1 Y102H W108A, the Kd in the data set with fluorescein was 0.0146 µM. The yeast surface expression in data set [1] came out at 0.528.

As to chain 1 G104A M105P, in the data set with fluorescein, the Kd is ≥ 10 µM. Further, the yeast surface expression in data set [1] came to 0.375.

For the variant chain 1 Y103D Y107C, in the data set with fluorescein, the Kd is ≥ 10 µM. Also, in data set [1], the yeast surface expression was 0.646.

In the case of chain 1 T28A N35C, the Kd with fluorescein was ≥ 10 µM. For the same variant, the yeast surface expression in data set [1] was found to be 0.665.

As for chain 1 S101C Y107T, the Kd in the data set with fluorescein is ≥ 10 µM. Moreover, the yeast surface expression in data set [1] came out at 0.62.

For the variant chain 1 F29N S30Q N35K, in the data set with fluorescein, the Kd is ≥ 10 µM. In addition, the yeast surface expression in data set [1] came to 2.76.

Turning to chain 1 S101I Y107Q, the Kd with fluorescein is ≥ 10 µM. Moreover, the yeast surface expression in data set [1] was found to be 0.376.

Regarding chain 1 M34P W36L, in the data set with fluorescein, the Kd is ≥ 10 µM. In addition, the yeast surface expression in data set [1] came to 0.216.

Regarding chain 1 Y107N W108D G109C, the Kd with fluorescein is ≥ 10 µM. The yeast surface expression in data set [1] turned out to be 0.313.

As to chain 1 Y103D M105Y, the Kd with fluorescein was ≥ 10 µM. The yeast surface expression in data set [1] came to 1.03.

Take chain 1 T28R D31L W33I: the Kd with fluorescein is ≥ 10 µM. In addition, the yeast surface expression in data set [1] worked out at 0.441.

In the case of chain 1 D106Y G109Q, the Kd with fluorescein was ≥ 10 µM. Also, in data set [1], the yeast surface expression is 0.171.

Regarding chain 1 Y32R M34S, the Kd in the data set with fluorescein is ≥ 10 µM. Also, the yeast surface expression in data set [1] stood at 0.191.

In the case of chain 1 M105N Y107I, the Kd in the data set with fluorescein was ≥ 10 µM. The yeast surface expression in data set [1] amounted to 1.2.

Regarding chain 1 D31L N35F, the Kd with fluorescein is ≥ 10 µM. In addition, the yeast surface expression in data set [1] came to 0.446.

In the case of chain 1 G100P M105S G109M, the Kd with fluorescein is ≥ 10 µM. Also, the yeast surface expression in data set [1] was found to be 0.234.

Regarding chain 1 T28Q N35R, the Kd with fluorescein was ≥ 10 µM. Further, the yeast surface expression in data set [1] was found to be 0.537.

For chain 1 G104S W108S, the Kd in the data set with fluorescein is ≥ 10 µM. Further, in data set [1], the yeast surface expression came to 0.304.

With chain 1 M34S W36K, the Kd with fluorescein was ≥ 10 µM. Besides, the yeast surface expression in data set [1] amounted to 0.646.

Regarding chain 1 M105D D106C, the Kd in the data set with fluorescein is ≥ 10 µM. For the same variant, the yeast surface expression in data set [1] came out at 0.616.

chain 1 M105F W108Y: the Kd in the data set with fluorescein was 0.0113 µM. Moreover, in data set [1], the yeast surface expression turned out to be 0.656.

With chain 1 M105V G109I, the Kd in the data set with fluorescein is ≥ 10 µM. Further, the yeast surface expression in data set [1] was determined as 0.203.

With chain 1 T28A D31W, the Kd in the data set with fluorescein is 0.00638 µM. Further, the yeast surface expression in data set [1] worked out at 0.862.

Regarding chain 1 M34F V37C, in the data set with fluorescein, the Kd was found to be 0.00104 µM. Further, the yeast surface expression in data set [1] worked out at 0.75.

Consider chain 1 S101N Y102M, for which the Kd with fluorescein was ≥ 10 µM. In data set [1], the yeast surface expression amounted to 0.944.

For chain 1 Y102E G104E, the Kd in the data set with fluorescein is ≥ 10 µM. Further, the yeast surface expression in data set [1] stood at 0.934.

On to chain 1 Y102E G104N, for which, in the data set with fluorescein, the Kd is ≥ 10 µM. Besides, the yeast surface expression in data set [1] was 0.819.

Turning to chain 1 F29A M34A, in the data set with fluorescein, the Kd is ≥ 10 µM. For the same variant, the yeast surface expression in data set [1] came to 0.738.

chain 1 Y32W N35T: the Kd with fluorescein was ≥ 10 µM. In data set [1], the yeast surface expression is 0.786.

Take chain 1 Y103C: the Kd with fluorescein was 0.00493 µM. Further, the yeast surface expression in data set [1] stood at 0.775.

On to chain 1 Y103N, for which the Kd with fluorescein is 0.00708 µM. Also, the yeast surface expression in data set [1] is 1.17.

For chain 1 Y103F, the Kd in the data set with fluorescein stood at 0.000763 µM. Besides, the yeast surface expression in data set [1] was determined as 1.06.

As to chain 1 D31V M34E, in the data set with fluorescein, the Kd turned out to be 0.676 µM. Also, the yeast surface expression in data set [1] amounted to 2.76.

Regarding chain 1 S30N N35E, the Kd in the data set with fluorescein is ≥ 10 µM. Besides, the yeast surface expression in data set [1] was 0.697.

chain 1 M105Q: the Kd with fluorescein is 0.0423 µM. Also, in data set [1], the yeast surface expression worked out at 1.23.

chain 1 M105S: the dissociation constant (Kd) in the data set with fluorescein was ≥ 10 µM. Also, in data set [1], the yeast surface expression was 0.889.

For the variant chain 1 Y32M W33D V37C, the Kd with fluorescein is ≥ 10 µM. Moreover, the yeast surface expression in data set [1] stood at 0.778.

As to chain 1 T28Q Y32S, the Kd in the data set with fluorescein amounted to 0.0896 µM. For the same variant, the yeast surface expression in data set [1] came to 0.926.

Consider chain 1 W33I M34F, for which, in the data set with fluorescein, the Kd is ≥ 10 µM. In data set [1], the yeast surface expression is 1.

Consider chain 1 T28E, for which the Kd with fluorescein turned out to be 0.0017 µM. In addition, in data set [1], the yeast surface expression turned out to be 1.04.

Consider chain 1 T28Q, for which the Kd in the data set with fluorescein is 0.000763 µM. In data set [1], the yeast surface expression worked out at 1.06.

As for chain 1 Y103R G109I, in the data set with fluorescein, the Kd was ≥ 10 µM. For the same variant, the yeast surface expression in data set [1] worked out at 0.291.

Consider chain 1 F29Q Y32L, for which the Kd with fluorescein was ≥ 10 µM. In addition, the yeast surface expression in data set [1] turned out to be 0.881.

In the case of chain 1 S30M V37M, the Kd with fluorescein turned out to be 0.000504 µM. The yeast surface expression in data set [1] was 0.887.

In the case of chain 1 W33F N35F, the Kd with fluorescein was ≥ 10 µM. The yeast surface expression in data set [1] is 0.3.

Take chain 1 Y32L W36Q: the dissociation constant Kd with fluorescein is ≥ 10 µM. Moreover, in data set [1], the yeast surface expression is 0.875.

As for chain 1 T28Q M34P, in the data set with fluorescein, the Kd was ≥ 10 µM. Moreover, the yeast surface expression in data set [1] was 0.676.

For the variant chain 1 F29M D31Y W33Q, the Kd with fluorescein was ≥ 10 µM. Further, the yeast surface expression in data set [1] turned out to be 0.811.

Take chain 1 Y102W Y107F: the Kd in the data set with fluorescein turned out to be 0.00158 µM. In data set [1], the yeast surface expression was 0.61.

In the case of chain 1 W33S, in the data set with fluorescein, the Kd was ≥ 10 µM. Moreover, the yeast surface expression in data set [1] amounted to 0.845.

In the case of chain 1 F29Q S30C N35I, the Kd with fluorescein is ≥ 10 µM. The yeast surface expression in data set [1] amounted to 0.232.

On to chain 1 G100K D106C, for which the Kd with fluorescein was ≥ 10 µM. The yeast surface expression in data set [1] was determined as 0.0988.

As a reminder, the Kd is the free concentration of one partner at which half of the binding sites on the other are occupied at equilibrium, for simple one-to-one binding.

(Values after the FLAb antibody collection (doi:10.7554/elife.23156).)
